Assay results from patent US20110008774A1.

Target: β-galactosidase (β-gal, Sigma) (E. coli) [β-galactosidase: P00722]
Assay: panning of mixtures with wt scFv13-SecM17 ARM complexes in 10:1, 100:1, 1,000:1 or 10,000:1 excess on immobilized β-gal; 10 clones sequenced per mixture

Chain of β-galactosidase (β-gal, Sigma) (E. coli) [β-galactosidase: P00722] (P00722 2-1024 limits assumed): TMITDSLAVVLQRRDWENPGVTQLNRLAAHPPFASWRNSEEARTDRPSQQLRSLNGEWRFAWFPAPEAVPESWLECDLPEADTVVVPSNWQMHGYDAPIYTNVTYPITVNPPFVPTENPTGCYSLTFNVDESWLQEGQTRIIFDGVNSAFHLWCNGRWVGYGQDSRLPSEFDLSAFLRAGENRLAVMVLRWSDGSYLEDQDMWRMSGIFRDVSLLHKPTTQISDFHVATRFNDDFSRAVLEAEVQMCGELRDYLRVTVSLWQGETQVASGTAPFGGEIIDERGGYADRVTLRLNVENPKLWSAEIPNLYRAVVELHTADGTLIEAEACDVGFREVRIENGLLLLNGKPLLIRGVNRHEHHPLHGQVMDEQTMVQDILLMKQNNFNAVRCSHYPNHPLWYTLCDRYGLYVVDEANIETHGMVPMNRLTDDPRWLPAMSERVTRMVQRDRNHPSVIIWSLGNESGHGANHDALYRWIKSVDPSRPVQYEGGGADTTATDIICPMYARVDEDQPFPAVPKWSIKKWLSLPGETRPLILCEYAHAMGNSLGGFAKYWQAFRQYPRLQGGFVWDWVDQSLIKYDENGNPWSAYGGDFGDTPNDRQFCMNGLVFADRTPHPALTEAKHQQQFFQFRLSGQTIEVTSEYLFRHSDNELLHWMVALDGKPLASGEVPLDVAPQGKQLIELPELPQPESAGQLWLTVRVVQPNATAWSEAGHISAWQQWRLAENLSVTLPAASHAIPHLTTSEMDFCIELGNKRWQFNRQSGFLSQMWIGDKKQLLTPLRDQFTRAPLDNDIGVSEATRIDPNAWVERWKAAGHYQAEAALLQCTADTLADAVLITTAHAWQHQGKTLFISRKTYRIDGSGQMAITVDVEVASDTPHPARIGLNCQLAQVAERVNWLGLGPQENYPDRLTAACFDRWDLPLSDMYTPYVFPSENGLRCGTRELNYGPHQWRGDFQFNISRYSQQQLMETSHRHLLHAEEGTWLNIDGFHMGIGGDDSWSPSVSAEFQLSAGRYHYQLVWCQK

Substance: scFv13-R4-SecM17 fusion
- share of sequenced clones recovered after panning: 100%
